Experiment [1] relates to styrene production. As to the kind of experiment: Styrene production by FDC1 mutants from tCA (colorimetric screening, confirmed by HPLC). The format is cell-based. As to conditions: E. coli cells, tCA 1 g/L, 30° C. for 4 hours. Here is the method: Saturation mutagenesis allows the change of one amino acid to 19 other alternative amino acid residues. […] The codon NNK has 32-fold degeneracy and encodes all 20 amino acids without rare codons. The QuikChange PCR products were examined by agarose gel electrophoresis and then 15 μl of PCR products were digested with 1 μl Dpnl (New England Biolabs) at 37° C. for 4 hours to remove the template plasmid. Aliquots of (2 μl) digestive products were transformed into BL21-Gold (DE3) competent cells (STRATAgene, CA) and inoculated on Luria-Bertani (LB) agar plates containing kanamycin. The quality of the library by DNA sequencing was confirmed. The library covers 90% of mutagenesis (17 mutants out of 19). To cover 100% (19 out of 19 mutant), we screened 150 mutants for each site.
The transformants (Example II.2) were inoculated in 96-well plates (NUNC, Roskilde, Denmark) containing 100 μl LB broth per well and incubated at 37° C., overnight. The cultures were then mixed with equal amount of 50% glycerol and stored at −80° C. as the master plate. An aliquot of 10 μl culture was inoculated in 2 ml deep-well plates (USA scientific) with 1 ml TB broth per well and incubated at 37° C. until the OD600 reached 1.0. The cultures were then induced by 0.2 mM IPTG and incubated at 18° C. for 20 hours with shaking at 250 rpm.
Cells were harvested and suspended with 0.25 ml PBS buffer at pH 7.0 and the substrate (tCA) was added at a final concentration of 1 g/L. The culture was incubated at 30° C. for 4 hours and the volatile product styrene was collected by using 96 well STRATA-X® reversed phase plate containing 10 mg polymer based resin (Phenomenex) on top of the culture plate (FIG. 19). To avoid styrene vapor diffusion, 96-square well silicone sealing mats with pre-slit were used between 96-well culture plate and 96 well STRATA-X® reversed phase plate. The product was collected by 200 μl propanol for each well and the amount of product was measured by colorimetric method.
Various chemicals were tested as an indicator for styrene detection, including NBP (4-nitrobenzyl-pyridine) as a preferred indicator. Styrene was mixed with cytochrome P450 BM-3 in 50 mM phosphate buffer pH 8.0. The styrene oxidation reaction was started by adding 0.2 mM NADPH, and the reaction mixture was incubated at room temperature for 5 minutes with shaking. The NBP solution was added to the mixture and incubated at room temperature for further 5 minutes with shaking which gives white precipitate. The tube or plate containing reaction mixtures were heated at 70° C. for 30 minutes and chilled on ice for 5 minutes. After adding Dimethylformamide (150 μl) and 25 μl of 1M K2CO3, the reaction mixture gave blue color that can be measured spectrophotometrically at 600 nm immediately. The […] of NBP reacts with the oxirane ring of styrene oxide to yield a blue chromophore a blue color that can be monitored spectrophotometrically at 600 nm.
The mutants showing higher activity were confirmed by HPLC using an ACQUITY UPLC BEH C18 column (1.7-μm, 2.1×50-mm, Waters, USA). The samples were resolved in 30% acetonitrile (A) with an increasing concentration gradient of acetonitrile (B) for 1 min, 95%; then to 1 min, 30%; at a flow rate of 1 ml/min. UV absorption was monitored at 254-, 280-, and 310-nm. The changed amino acid residues in the mutants showing the higher activity were confirmed by DNA sequence.

For experiment [2], the system named is styrene production. As to the kind of experiment: Production of styrene from trans-cinnamic acid in E. coli BL-21 (DE3). It is filed as cell-based. Particulars: fed 0.1% trans-cinnamic acid, 36 hours, STRATA X column. Here is the method:
The nucleotides encoding FDC wild type, FDC mutant (K190E), FDC (WT)-PAL fusion protein, and FDC (K190E)-PAL fusion protein were transformed in E. coli BL-21 (DE3). The cells were grown in LB at 30° C. for overnight. The cells were harvested and washed with M9 media. The cells were inoculated to 2.0 ml M9 media with the initial OD600 at 0.3 and were cultured at 30° C. until the OD600 of the culture reached to 0.6 to 0.8. The cells were then induced with 0.2 mM IPTG for 8.0 hours at 30° C. The cells transformed with FDC wild type and FDC (K190E) were fed with 0.1% trans-cinnamic acid. The cells transformed with FDC (WT)-PAL and FDC (K190E)-PAL fusion proteins were fed with either 0.1% trans-cinnamic acid or 0.1% L-phenylalanine. The fed cells were continuously cultured for 36 hours. STRATA X column was used to collect styrene. The product was eluted from the column by butanol and the amount was quantified by HPLC.

B1: K190E (protein)
chain: MRKLNPALEFRDFIQVLKDEDDLIEITEEIDPNLEVGAIMRKAYESHLPAPLFKNLKGASKDLFSILGCPAGLRSKEKGDHGRIAHHLGLDPKTTIKEIIDYLLECKEKEPLPPITVPVSSAPCKTHILSEEKIHLQSLPTPYLHVSDGGKYLQTYGMWILQTPDKKWTNWSIARGMVVDDKHITGLVIEPQHIRQIADSWAAIGKANEIPFALCFGVPPAAILVSSMPIPEGVSESDYVGAILGESVPVVKCETNDLMVPATSEMVFEGTLSLTDTHLEGPFGEMHGYVFKSQGHPCPLYTVKAMSYRDNAILPVSNPGLCTDETHTLIGSLVATEAKELAIESGLPILDAFMPYEAQALWLILKVDLKGLQALKTTPEEFCKKVGDIYFRTKVGFIVHEIILVADDIDIFNFKEVIWAYVTRHTPVADQMAFDDVTSFPLAPFVSQSSRSKTMKGGKCVTNCIFRQQYERSFDYITCNFEKGYPKGLVDKVNENWKRYGYK
Regarding B1, in experiment [1], the “amount of styrene compared to that of wild type (in words)” value was “significantly higher amount of styrene” and the “styrene produced compared to wild type” value worked out at 3 times. The molecule also returned a styrene produced in experiment [2] of 758 mg/L.

The values above are taken from patent US10752921B2, “Enzymes and methods for styrene synthesis” (Phytogene, Inc., priority 2012, dated 2020).
